Values joined by “and” are separate entries in the source; they are usually repeats but may differ in a detail not shown here. Equal entries are not always repeated.
Target: human EPO receptor (EPO-Rc) (human) (UniProt P19235)
Assay: cell-based or functional assay

Chain of UniProt P19235 (P19235 25-508): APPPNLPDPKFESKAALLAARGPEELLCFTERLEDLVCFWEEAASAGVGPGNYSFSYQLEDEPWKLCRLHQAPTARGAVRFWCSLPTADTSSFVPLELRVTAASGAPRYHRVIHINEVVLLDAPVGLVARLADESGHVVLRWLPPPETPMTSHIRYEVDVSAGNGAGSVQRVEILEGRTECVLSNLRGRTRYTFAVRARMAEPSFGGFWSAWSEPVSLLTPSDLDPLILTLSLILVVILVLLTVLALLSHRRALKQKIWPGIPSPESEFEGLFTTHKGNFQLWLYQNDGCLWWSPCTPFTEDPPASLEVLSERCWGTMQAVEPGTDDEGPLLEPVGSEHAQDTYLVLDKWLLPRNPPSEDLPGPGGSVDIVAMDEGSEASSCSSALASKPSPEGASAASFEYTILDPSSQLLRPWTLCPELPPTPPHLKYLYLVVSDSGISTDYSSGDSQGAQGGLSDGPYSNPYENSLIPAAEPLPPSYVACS

## Recombinant human EPO (rHuEPO) (from UniProt P01588 28-192) (ligand)
  proliferation of the 32D1.9 cells (MTT, OD 550 nm); in vitro biological activity on a molar basis: 3e+06 units/µmole and 4e+06 units/µmole

Source: patent US20040175824A1
